The values below are quoted from earlier work in article PMC7290885.

For series [1], the target named is GLP-1R (Homo sapiens) (UniProt P43220).
Series [2] shares this target. This is another data set of the same source.
The target is the same in series [3]. This is another data set of the same source.
Series [4] shares this target. The source holds these as a separate data set.

Read-outs that look alike come from different tables or passages of the source.

Sequence of UniProt P43220 (P43220 24-463): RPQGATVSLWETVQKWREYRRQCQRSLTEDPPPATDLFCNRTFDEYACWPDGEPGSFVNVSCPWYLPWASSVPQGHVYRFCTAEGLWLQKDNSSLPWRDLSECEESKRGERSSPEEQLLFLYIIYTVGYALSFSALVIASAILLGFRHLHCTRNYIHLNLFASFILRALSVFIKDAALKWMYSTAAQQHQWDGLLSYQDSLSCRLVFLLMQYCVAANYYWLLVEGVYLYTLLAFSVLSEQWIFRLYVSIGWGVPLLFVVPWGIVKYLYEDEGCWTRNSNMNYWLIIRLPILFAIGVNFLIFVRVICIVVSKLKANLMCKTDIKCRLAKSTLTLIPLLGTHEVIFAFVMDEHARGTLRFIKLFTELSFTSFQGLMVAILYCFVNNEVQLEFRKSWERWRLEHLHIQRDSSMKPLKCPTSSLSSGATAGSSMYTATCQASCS

A word on the Kd: it is a measure of binding affinity in units of concentration. For the substance “LCA-M1 (exendin-4 derivative) (from UniProt P26349)”, in the series with GLP-1R (Homo sapiens) [1], the Kd was 0.47 nM.

With “LCA-M2 (exendin-4 derivative) (from UniProt P26349)”, in the series with GLP-1R (Homo sapiens) [2], the Kd is 0.55 nM.

As for exendin-4 (from UniProt P26349), the Kd with GLP-1R (Homo sapiens) [3] is 0.14 nM.

With “LCA-Di (exendin-4 derivative) (from UniProt P26349)”, the Kd in the series with GLP-1R (Homo sapiens) [4] is 71.7 nM.
